In the assay the target is T1, wt α2 (subunit α2 of E. coli class Ia ribonucleotide reductase) (E. coli, UniProt P00452 1-761).
T1 sequence (looked up): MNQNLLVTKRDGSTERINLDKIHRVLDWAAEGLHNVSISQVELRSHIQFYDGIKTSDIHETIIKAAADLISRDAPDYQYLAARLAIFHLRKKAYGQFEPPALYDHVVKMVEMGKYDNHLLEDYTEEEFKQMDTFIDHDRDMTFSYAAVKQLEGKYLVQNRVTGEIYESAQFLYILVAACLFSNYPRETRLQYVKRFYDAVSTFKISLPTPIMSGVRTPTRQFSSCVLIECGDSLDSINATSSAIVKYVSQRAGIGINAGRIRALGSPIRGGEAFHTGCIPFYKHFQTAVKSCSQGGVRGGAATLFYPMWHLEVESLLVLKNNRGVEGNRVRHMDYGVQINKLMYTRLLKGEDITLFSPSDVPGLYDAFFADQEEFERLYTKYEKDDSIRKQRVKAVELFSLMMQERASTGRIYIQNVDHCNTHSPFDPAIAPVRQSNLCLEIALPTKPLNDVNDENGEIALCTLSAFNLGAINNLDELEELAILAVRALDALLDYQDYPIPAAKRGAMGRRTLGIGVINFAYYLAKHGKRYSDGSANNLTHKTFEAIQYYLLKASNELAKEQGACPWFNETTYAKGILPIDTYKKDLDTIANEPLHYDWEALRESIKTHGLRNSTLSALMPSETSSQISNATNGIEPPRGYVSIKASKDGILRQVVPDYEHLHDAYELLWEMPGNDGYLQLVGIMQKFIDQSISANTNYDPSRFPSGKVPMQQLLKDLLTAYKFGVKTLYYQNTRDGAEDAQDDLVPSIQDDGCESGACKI
In words: competitive inhibition assay.

B1: wt β2 (subunit β2 of E. coli class Ia ribonucleotide reductase) (enzyme, UniProt P69924 1-376, looked up)
chain: MAYTTFSQTKNDQLKEPMFFGQPVNVARYDQQKYDIFEKLIEKQLSFFWRPEEVDVSRDRIDYQALPEHEKHIFISNLKYQTLLDSIQGRSPNVALLPLISIPELETWVETWAFSETIHSRSYTHIIRNIVNDPSVVFDDIVTNEQIQKRAEGISSYYDELIEMTSYWHLLGEGTHTVNGKTVTVSLRELKKKLYLCLMSVNALEAIRFYVSFACSFAFAERELMEGNAKIIRLIARDEALHLTGTQHMLNLLRSGADDPEMAEIAEECKQECYDLFVQAAQQEKDWADYLFRDGSMIGLNKDILCQYVEYITNIRMQAVGLDLPFQTRSNPIPWINTWLVSDNVQVAPQEVEVSSYLVGQIDSEVDTDDLSNFQL
modifications: diferric-tyrosyl radical cofactor (Y122•), reconstitution yield of 1.1 Y•/β2
Regarding B1, the binding result was “binds”.

B2: E52Q-photoβ2 (E52Q/C268S/C305S/S355C-β2 of E. coli class Ia ribonucleotide reductase, labelled with the [Re] photooxidant at C355) (enzyme, UniProt P69924 1-376, looked up)
chain: MAYTTFSQTKNDQLKEPMFFGQPVNVARYDQQKYDIFEKLIEKQLSFFWRPEQVDVSRDRIDYQALPEHEKHIFISNLKYQTLLDSIQGRSPNVALLPLISIPELETWVETWAFSETIHSRSYTHIIRNIVNDPSVVFDDIVTNEQIQKRAEGISSYYDELIEMTSYWHLLGEGTHTVNGKTVTVSLRELKKKLYLCLMSVNALEAIRFYVSFACSFAFAERELMEGNAKIIRLIARDEALHLTGTQHMLNLLRSGADDPEMAEIAEESKQECYDLFVQAAQQEKDWADYLFRDGSMIGLNKDILSQYVEYITNIRMQAVGLDLPFQTRSNPIPWINTWLVSDNVQVAPQEVEVSCYLVGQIDSEVDTDDLSNFQL
modifications: [Re] photooxidant (tricarbonyl(1,10-phenanthroline)-4-thiomethylpyridine rhenium) covalently ligated to C355 (S355C); endogenous Y122• reduced
B2 showed a Kd of 1060 nM.

As a reminder, the Kd is the concentration at which binding is half-saturated.

For the origin of these results see article PMC7904477 (Journal of the American Chemical Society, 2020).
